Assay results as given in patent US20260209789A1 (WESTLAKE UNIVERSITY, published 2026).

B1: 3xFLAG-MCP (other)
chain: MDYKDHDGDYKDHDIDYKDDDDKASNFTQFVLVDNGGTGDVTVAPSNFANGVAEWISSNSRSQAYKVTCSVRQSSAQKRKYTIKVEVPKVATQTVGGVELPVAAWRSYLNMELTIPIFATNSDCELIVKAMQGLLKDGNPIPSAIAANSGIY
notes: also called 3×FLAG-tagged MCP; pSL1084
B2: 3xHA-CCmut3-NSP3 (designed binder)
chain: MVDPVGFAEAWKAQFPDSEPPRMELRSVGDIEQELERAEARIRRNEQRVNQERFRMIYLETLLAKEKKSYDRASGSGGGGDVASMLKMESTQQMASSIINTSFEAAVVAATSTLELMGIQYDYNEVYTRVKSKFDYVMDDSGVKNNLLGKAATIDQALNGKFGSAARNRNWMADTRTTARLDEDVNKLRMMLSSKGIDQKMRVLNACFNVKRVPGKSSSIIKCTRLMRDKIERGEVEVDDSFVEEKMEVDTIDWKSRYEQLEKRFESLKQRVNEKYTSWVQKAKKVNENMYSLQNVISQQQSQIADLQNYCNKLEVDLQNKISSLVSSVEWYLKSMELPDEIKTDIEQQLNSIDVINPINAIDDFESLIRNIILDYDRIFLMFKGLMRQCNYEYTYEYPYDVPDYAYPYDVPDYAYPYDVPDYA
notes: also called 3×HA-tagged CCmut3-NSP3; pSL1102
B3: 3xFLAG-MCP-NSP3 (other)
chain: MDYKDHDGDYKDHDIDYKDDDDKASNFTQFVLVDNGGTGDVTVAPSNFANGVAEWISSNSRSQAYKVTCSVRQSSAQKRKYTIKVEVPKVATQTVGGVELPVAAWRSYLNMELTIPIFATNSDCELIVKAMQGLLKDGNPIPSAIAANSGIYASGSGGGGDVMLKMESTQQMASSIINTSFEAAVVAATSTLELMGIQYDYNEVYTRVKSKFDYVMDDSGVKNNLLGKAATIDQALNGKFGSAARNRNWMADTRTTARLDEDVNKLRMMLSSKGIDQKMRVLNACFNVKRVPGKSSSIIKCTRLMRDKIERGEVEVDDSFVEEKMEVDTIDWKSRYEQLEKRFESLKQRVNEKYTSWVQKAKKVNENMYSLQNVISQQQSQIADLQNYCNKLEVDLQNKISSLVSSVEWYLKSMELPDEIKTDIEQQLNSIDVINPINAIDDFESLIRNIILDYDRIFLMFKGLMRQCNYEYTYE
notes: also called 3×FLAG-tagged MCP-NSP3; pSL1083
B4: 3xFLAG-MCP-ABI(iDab) (VHH)
chain: MDYKDHDGDYKDHDIDYKDDDDKASNFTQFVLVDNGGTGDVTVAPSNFANGVAEWISSNSRSQAYKVTCSVRQSSAQKRKYTIKVEVPKVATQTVGGVELPVAAWRSYLNMELTIPIFATNSDCELIVKAMQGLLKDGNPIPSAIAANSGIYASGSGGGGDVGSEVQLLESGGGLVQPGGSLRLSCAASGFTFSTFSMNWVRQAPGKGLEWVSYISKCGHVIYYADSVKGRFTISRDNSKNTLYLQMNSLRAEDTAVYYCARGPLWSFVRMSFDYWGQGTLVTVSSAS
notes: also called 3×FLAG-tagged MCP-ABI (iDab)3; 3xFLAG-MCP-(ABI(iDab))3

Tests used:
endogenous eIF4E = endogenous eIF4E (human (endogenous in HEK-293 cells), UniProt P06730 2-217); experiment: anti-Flag co-IP from HEK-293 lysate, Western blot with anti-eIF4E (FIG. 6A)
endogenous eIF4G = endogenous eIF4G (human (endogenous in HEK-293 cells), UniProt Q04637 1-1599); experiment: anti-Flag co-IP from HEK-293 lysate, Western blot with anti-eIF4G (FIG. 6A)
BCR-ABL = biological target: T1, BCR-ABL
T1 construct: Overexpressed in HEK-293 cells; also called BCR-ABL oncoprotein; BCR-ABL fusion protein

Sequence of endogenous eIF4G (Q04637 whole entry): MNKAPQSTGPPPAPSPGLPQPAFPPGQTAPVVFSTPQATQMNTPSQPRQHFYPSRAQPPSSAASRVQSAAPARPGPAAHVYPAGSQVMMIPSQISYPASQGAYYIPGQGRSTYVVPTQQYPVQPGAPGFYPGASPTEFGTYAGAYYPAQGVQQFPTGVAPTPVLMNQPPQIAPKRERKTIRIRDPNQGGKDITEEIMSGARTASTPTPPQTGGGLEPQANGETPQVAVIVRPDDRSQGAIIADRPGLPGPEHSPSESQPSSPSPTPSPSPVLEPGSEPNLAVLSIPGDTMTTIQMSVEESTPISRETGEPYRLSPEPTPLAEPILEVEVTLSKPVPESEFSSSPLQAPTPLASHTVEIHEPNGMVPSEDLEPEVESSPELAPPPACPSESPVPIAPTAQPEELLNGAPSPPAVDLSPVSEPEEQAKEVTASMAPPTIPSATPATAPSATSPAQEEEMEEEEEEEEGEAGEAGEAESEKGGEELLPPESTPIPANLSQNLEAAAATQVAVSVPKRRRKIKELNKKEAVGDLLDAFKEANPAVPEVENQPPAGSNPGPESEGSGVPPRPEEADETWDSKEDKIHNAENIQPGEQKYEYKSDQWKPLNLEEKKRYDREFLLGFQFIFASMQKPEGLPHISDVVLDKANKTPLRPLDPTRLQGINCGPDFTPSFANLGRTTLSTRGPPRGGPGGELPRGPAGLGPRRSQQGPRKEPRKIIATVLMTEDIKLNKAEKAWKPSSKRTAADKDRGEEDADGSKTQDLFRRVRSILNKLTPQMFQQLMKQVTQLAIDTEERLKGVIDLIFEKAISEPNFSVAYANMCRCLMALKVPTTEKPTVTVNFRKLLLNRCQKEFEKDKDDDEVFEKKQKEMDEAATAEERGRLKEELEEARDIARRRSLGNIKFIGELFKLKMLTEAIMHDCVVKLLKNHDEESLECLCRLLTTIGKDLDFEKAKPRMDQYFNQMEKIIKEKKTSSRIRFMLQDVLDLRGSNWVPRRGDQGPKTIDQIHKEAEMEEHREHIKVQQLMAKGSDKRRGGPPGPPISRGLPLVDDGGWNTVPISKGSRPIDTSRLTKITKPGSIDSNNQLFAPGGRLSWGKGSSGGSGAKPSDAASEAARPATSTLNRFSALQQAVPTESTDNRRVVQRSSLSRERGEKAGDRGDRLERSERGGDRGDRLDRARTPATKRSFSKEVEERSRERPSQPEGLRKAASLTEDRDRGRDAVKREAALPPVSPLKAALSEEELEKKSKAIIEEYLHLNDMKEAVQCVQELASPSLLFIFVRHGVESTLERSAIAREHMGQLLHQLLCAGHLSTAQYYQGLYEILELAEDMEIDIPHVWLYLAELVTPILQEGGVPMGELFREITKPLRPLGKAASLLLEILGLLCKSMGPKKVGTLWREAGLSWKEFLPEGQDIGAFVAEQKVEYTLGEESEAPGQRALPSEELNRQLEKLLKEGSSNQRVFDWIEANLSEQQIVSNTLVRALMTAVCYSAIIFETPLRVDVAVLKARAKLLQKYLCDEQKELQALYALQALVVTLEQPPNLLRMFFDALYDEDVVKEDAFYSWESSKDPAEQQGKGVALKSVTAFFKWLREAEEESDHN
Sequence of endogenous eIF4E (P06730 2-217 limits assumed): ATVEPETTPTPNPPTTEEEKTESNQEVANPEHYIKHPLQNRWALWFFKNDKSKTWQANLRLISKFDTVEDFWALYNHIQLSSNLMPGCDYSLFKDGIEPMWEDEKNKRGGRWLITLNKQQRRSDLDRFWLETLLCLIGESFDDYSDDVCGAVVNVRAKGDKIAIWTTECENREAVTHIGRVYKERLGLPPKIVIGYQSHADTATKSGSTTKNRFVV

Binder	binding result (endogenous eIF4E)	binding result (endogenous eIF4G)	binding result (BCR-ABL)
B1	no binding	no binding	–
B2	–	–	binds
B3	–	binds	–
B4	–	–	binds
